This is an account of results in US20130224191A1, “NOTUM PROTEIN MODULATORS AND METHODS OF USE” (priority 2010, published 2013).

The subject of assay [1] is human Notum D141N, D141S. The assay can be described thus: Neutralization of point mutated human Notum, 4-MUH assay. Format: biochemical. As to the method:
(§1) In addition to the assays described in Examples 23 and 24, a fluorescent esterase substrate, 4-methylumbelliferyl heptanoate (Sigma), can be used to measure the activity of hydrolases using standard assay conditions (Richardson and Smith, 2007, PMID: 17620441; Jacks and Kircher, 1967, PMID: 5582971). Briefly, 4-MUH was dissolved in DMSO to a final concentration of 1.2 mM. This substrate was diluted 1:10 into assay buffer (0.1M Tris, pH 7.5, 50 mM NaCl, 0.05% Brij) and incubated with defined amounts of Notum enzyme or point-mutated Notum enzymes, and enzymatic release of the fluorescent molecule 4-methylumbelliferone monitored (355 nm excitation, 460 nm emission) using a Wallac Victor3 Multilabel Counter (Perkin Elmer).
(§2) Similarly, the macaque residue at this position was point mutated to the human residue (N141D). […] However, these point mutants differed in their ability to be neutralized by SC2.D2.2 (FIG. 26).

For a further assay, the system named is macaque Notum N141D. In words: Neutralization of point mutated macaque Notum, 4-MUH assay. Format: biochemical. As to the method: as §1, §2
In assay [2] the target is T1, chimeric human/mouse Notum (Homo sapiens, UniProt Q6P988, A205S/A256S/E196D/E289D/E487K/H276R/H373G/H396Y/K251E/L360Q/L418F/L429M/L483M/M474V/N299S/P379Q/P480Q/Q248L/Q311K/R218K/R307Q/R361W/S193P/T277S/T284N/V280I/V301M/V434F/V452I/Y171H).
T1 construct: human mature Notum protein (residues 19-144) fused to the mouse Notum (mouse residues 150-484); His tag; made in house
T1 sequence (Q6P988 with tags, fused parts or gaps Y171H/S193P/E196D/A205S/R218K/Q248L/K251E/A256S/H276R/T277S/V280I/T284N/E289D/N299S/V301M/R307Q/Q311K/L360Q/R361W/H373G/P379Q/H396Y/L418F/L429M/V434F/V452I/M474V/P480Q/L483M/E487K): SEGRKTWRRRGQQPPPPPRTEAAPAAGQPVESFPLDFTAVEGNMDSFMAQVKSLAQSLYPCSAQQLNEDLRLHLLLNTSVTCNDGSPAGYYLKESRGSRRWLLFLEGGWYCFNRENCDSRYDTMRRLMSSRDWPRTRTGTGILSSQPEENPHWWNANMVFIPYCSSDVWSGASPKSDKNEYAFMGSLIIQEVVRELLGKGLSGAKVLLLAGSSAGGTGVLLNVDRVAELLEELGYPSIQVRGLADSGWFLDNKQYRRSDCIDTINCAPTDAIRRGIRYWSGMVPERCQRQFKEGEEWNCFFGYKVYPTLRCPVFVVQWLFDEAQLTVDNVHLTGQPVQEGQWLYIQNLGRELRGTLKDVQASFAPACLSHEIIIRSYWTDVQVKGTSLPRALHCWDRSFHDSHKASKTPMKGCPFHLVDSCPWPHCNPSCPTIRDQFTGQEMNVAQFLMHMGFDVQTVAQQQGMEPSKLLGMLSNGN
In words: Neutralization of chimeric Notum in 293.TCF assay. Format: cell-based. An excerpt: To better understand the structural basis for the interaction of SC2.D2.2 with human Notum, a chimeric Notum protein was fabricated. This approach takes advantage of the fact that the orthologs are structurally related. To that end a chimeric Notum molecule composed of the N terminal of the human mature Notum protein (residues 19-144) fused to the mouse Notum (mouse residues 150-484) (genes both consistent with Example 7) was generated and expressed in a similar manner to that set forth in previous Examples. The BamHI restriction cleavage site in human Notum gene was used for construction of in-frame fusion Notum chimeric protein. An expression vector was then constructed containing the His tagged chimeric Notum sequence.
The chimeric human/mouse Notum protein described in Example 17 was placed into the 293.TCF assay. […] (Note that FIG. 1C would annotate the residue as D129, based upon numbering from the start of the mature Notum protein, whereas the D141 annotation is based upon the consideration of the wild-type human protein precursor).

Assay [3] deals with T2, human Notum D141N, D141S (Homo sapiens, UniProt Q6P988, D141N).
T2 construct: made in house
T2 sequence (Q6P988 20-496 D141N): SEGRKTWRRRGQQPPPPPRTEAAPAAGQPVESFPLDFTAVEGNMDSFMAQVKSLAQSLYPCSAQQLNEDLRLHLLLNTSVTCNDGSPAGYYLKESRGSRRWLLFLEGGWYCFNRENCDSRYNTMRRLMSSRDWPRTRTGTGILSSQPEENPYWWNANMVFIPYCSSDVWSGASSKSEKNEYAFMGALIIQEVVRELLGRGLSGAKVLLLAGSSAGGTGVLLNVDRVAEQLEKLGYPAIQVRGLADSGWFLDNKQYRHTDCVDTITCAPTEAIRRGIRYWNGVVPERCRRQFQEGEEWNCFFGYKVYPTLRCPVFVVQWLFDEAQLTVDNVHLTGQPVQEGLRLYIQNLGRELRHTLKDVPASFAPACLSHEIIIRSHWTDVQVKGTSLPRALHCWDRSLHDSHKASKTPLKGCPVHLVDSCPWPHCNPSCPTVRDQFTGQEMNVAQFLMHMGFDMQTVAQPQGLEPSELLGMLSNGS
In words: Neutralization of point mutated human Notum, TCF assay. In kind it is cell-based. The note with it: human D141N or D141S.
Source text: as §2

B1: SC2.D2.2 (antibody, V domains shown)
VH: DVQLVESGGGLVQPGGSRKISCAASGFTFSSYGMHWVRQAPEKGLEWVAYISSSTVTTYYADTVKGRFTISRDNANNTLFLQMTSLRSEDTAMYYCSRQNWDGGYFDVWGAGTTVTVSS
VL: DIVLTQSLASLAVSLGQRATISCRASKSVSSSGYSYMHWYQQKPGQPPKLLIYLASNLESGVPARFSGSGSGTDFTLNIHPVEEEDAATYYCQHSRALPLTFGAGTKLELKR
notes: also called murine SC2.D2.2
Consider B1, for which the “neutralization of mutant Notum protein” value with human Notum D141N, D141S [1] is reported as “eliminated the ability of SC2.D2.2 to neutralize the resultant protein”; in the assay with macaque Notum N141D, “enabled the antibody to neutralize the mutant protein”; with human Notum D141N, D141S [3], “eliminated the ability of SC2.D2.2 to neutralize the mutant Notum protein”. In assay [2], the “neutralization of chimeric Notum activity” value was “can be neutralized”.
